Patent US20260266848A1, “COMPOSITIONS AND METHODS FOR DIAGNOSING AND TREATING DYSTONIA” (Duke University, priority 2023, published 2026)

B1: Mtap (protein, UniProt Q9CQ65 1-283, looked up)
S-methyl-5'-thioadenosine …: MASGSACTAVKIGIIGGTGLDDPEILEGRTEKYVDTPFGKPSDALILGKIKNVDCVLLARHGRQHTIMPSKVNYQANIWALKEEGCTHVIVTTACGSLREEIQPGDMVIIDQFIDRTSLRPQTFYDGSHCSARGVCHIPMAEPFCPKTREVLIETAKKLGLRCHSKGTIVTIEGPRFSSRAESLIFRTWGADVVNMTTVPEVVLAKEAGICYASIAMATDYDCWKEHEEAVSVDGVLKTMKENANKAKSLLLTTIPQIGSMEWSETLRNLKNMAQFSVLPPRH
B2: Atp6v1h (protein, UniProt Q8BVE3 1-483, looked up)
V-type proton ATPase subunit H: MTKMDIRGAVDAAVPTNIIAAKAAEVRANKVNWQSYLQGQMISAEDCEFIQRFEMKRSSEDKQEMLQTEGSQCAKTFINLMTHISKEQTVQYILTMVDDMLQENHQRVSIFFDYAKRSKSTAWPYFLPMLNRQDPFTVHMAARIIAKLAAWGKELMEGSDLNYYFNWIKTQLSSQKLRGSGVAVETGTISSSDSSQYVQCVAGCLQLMLRVNEYRFAWVEADGVNCIMGVLSNKCGFQLQYQMIFSIWLLAFSPQMCEHLRRYNIIPVLSDILQESVKEKVTRIILAAFRNFLEKSTERETRQEYALAMIQCKVLKQLENLEQQKYDDEDISEDIKFLLEKLGESVQDLSSFDEYSSELKSGRLEWSPVHKSEKFWRENAVRLNEKNYELLKILTKLLEVSDDPQVLAVAAHDVGEYVRHYPRGKRVIEQLGGKQLVMNHMHHEDQQVRYNALLAVQKLMVHNWEYLGKQLQSEQPQTAAARS
B3: Hsd17b4 (protein, UniProt P51660 1-735, looked up)
Peroxisomal multifunctional …: MASPLRFDGRVVLVTGAGGGLGRAYALAFAERGALVIVNDLGGDFKGIGKGSSAADKVVAEIRRKGGKAVANYDSVEAGEKLVKTALDTFGRIDVVVNNAGILRDRSFSRISDEDWDIIHRVHLRGSFQVTRAAWDHMKKQNYGRILMTSSASGIYGNFGQANYSAAKLGILGLCNTLAIEGRKNNIHCNTIAPNAGSRMTETVLPEDLVEALKPEYVAPLVLWLCHESCEENGGLFEVGAGWIGKLRWERTLGAIVRKRNQPMTPEAVRDNWEKICDFSNASKPQTIQESTGGIVEVLHKVDSEGISPNRTSHAAPAATSGFVGAVGHKLPSFSSSYTELQSIMYALGVGASVKNPKDLKFVYEGSADFSCLPTFGVIVAQKSMMNGGLAEVPGLSFNFAKALHGEQYLELYKPLPRSGELKCEAVIADILDKGSGVVIVMDVYSYSGKELICYNQFSVFVVGSGGFGGKRTSEKLKAAVAVPNRPPDAVLRDATSLNQAALYRLSGDWNPLHIDPDFASVAGFEKPILHGLCTFGFSARHVLQQFADNDVSRFKAIKVRFAKPVYPGQTLQTEMWKEGNRIHFQTKVHETGDVVISNAYVDLVPASGVSTQTPSEGGELQSALVFGEIGRRLKSVGREVVKKANAVFEWHITKGGTVAAKWTIDLKSGSGEVYQGPAKGSADVTIIISDEDFMEVVFGKLDPQKAFFSGRLKARGNIMLSQKLQMILKDYAKL
B4: Sec31a (protein, UniProt Q3UPL0 1-1230, looked up)
Protein transport protein …: MKLKEIDRTAMQAWSPAQNHPIYLATGTSAQQLDATFSTNASLEIFELDLSDPSLDMKSCATFSSSHRYHKLIWGPHKMDSKGDVSGVLIAGGENGNIILYDPSKIIAGDKEVVIAQKDKHTGPVRALDVNIFQTNLVASGANESEIYIWDLNNFATPMTPGAKTQPPEDISCIAWNRQVQHILASASPSGRATVWDLRKNEPIIKVSDHSNRMHCSGLAWHPDVATQMVLASEDDRLPVIQMWDLRFASSPLRVLENHARGILAVAWSMADPELLLSCGKDAKILCSNPNTGEVLYELPTNTQWCFDIQWCPRNPAVLSAASFDGRISVYSIMGGSIDGLRQKQVDKLSSSFGNLDPFGTGQPLPPLQIPQQSAQHSIVLPLKKPPKWIRRPVGASFSFGGKLVTFESVAVPLQQGAEQQRRQPVFISQVVTEKDFLNRSAQLQHAVQSQGFIGYCQKKIEASQTEFEKNVWSFLKVNFEEDSRGKYLELLGYRKEDLGQKIALALNKVDGPDVALKDSDQVAQSDGEESPAAEEQLLGERIKEEKQECDFLPSAGGTFNISVSGDIDGLITRALLTGNFESAVDLCLHDNRMADAIILAIAGGQELLAQTQKKYFAKSQSKITRLITAVVMKNWREIVESCDLKNWREALAAVLTYAKPDEFSALCDLLGTRLEREGDSLLRTQACLCYICAGNVERLVACWTKAQDGSSPLSLQDLIEKVVILRKAVQLTQALDTNTVGALLAEKMSQYASLLAAQGSIAAALAFLPDNTNQPNIVQLRDRLCKAQGKPVSGQESSQSPYERQPLSKGRPGPVAGHSQMPRVQTQQYYPHGENPPPPGFIMQGNVIPNPAAPLPTAPGHMPSQLPPYPQPQPYQPAQQYSFGTGGAAAYRPQQPVAPPASNAYPNTPYISPVASYSGQPQMYTAQQASSPTSSSAASFPPPSSGASFQHGGPGAPPSSSAYALPPGTTGTPPAASELPASQRTENQSFQDQASILEGPQNGWNDPPALNRVPKKKKMPENFMPPVPITSPIMNPSGDPQSQGLQQQPSTPGPLSSHASFPQQHLAGGQPFHGVQQPLAQTGMPPSFSKPNTEGAPGAPIGNTIQHVQALPTEKITKKPIPEEHLILKTTFEDLIQRCLSSATDPQTKRKLDDASKRLEFLYDKLREQTLSPTIINGLHSIARSIETRNYSEGLSVHTHIVSTSNFSETSAFMPVLKVVLSQASKLGV
B5: Mri1 (protein, UniProt Q9CQT1 1-369, looked up)
Methylthioribose-1-phosphate …: MTLEAIRYSPGSLQILDQLQLPEHCHYEALSSVQQASEAIRAMKVRGAPAIALVGCLSLAVELRAGAGGPGLAALVAFVRDQLRLLVAARPTAVNMARAARDLGQVAAQEAEREGATEETVRERVIRFAEDMLEKDLKDNRSIGDLGARHLLEQTNPRGGKVTVLTHCNTGALATAGYGTALGVIRSLHEMGRLEHTFCTETRPYNQGARLTAFELVYEQIPATLITDSMAAAAMAHRGVSAVVVGADRVVANGDTANKIGTYQLAIVAKHHGVPFYVAAPSSSCDLHLETGKEIVIEERPSQELTDLNGVRIAAQGIRVWNPAFDVTPHELITGGIITELGVFAPEELRGALSASVFSEGQTLDSPWV
B6: Efemp1 (protein, UniProt Q8BPB5 18-493, looked up)
EGF-containing fibulin-like …: QYTEETITYTQCTDGYEWDPIRQQCKDIDECDIVPDACKGGMKCVNHYGGYLCLPKTAQIIVNNEHPQQETPAAEASSGATTGTVAARSMATSGVVPGGGFMASATAVAGPEVQTGRNNFVIRRNPADPQRIPSNPSHRIQCAAGYEQSEHNVCQDIDECTSGTHNCRTDQVCINLRGSFTCQCLPGYQKRGEQCVDIDECTVPPYCHQRCVNTPGSFYCQCSPGFQLAANNYTCVDINECDASNQCAQQCYNILGSFICQCNQGYELSSDRLNCEDIDECRTSSYLCQYQCVNEPGKFSCMCPQGYEVVRSRTCQDINECETTNECREDEMCWNYHGGFRCYPRNPCQDHYVLTSENRCVCPVSNTMCRELPQSIVYKYMSIRSDRSVPSDIFQIQATMIYANTINTFRIKSGNENGEFYLRQTSPVSAMLVLVKSLSGPREYIVDLEMLTVSSIGTFRTSSVLRLTIIVGPFSF
B7: Itgb5 (protein, UniProt O70309 24-798, looked up)
Integrin beta-5: GLNICTSGSATSCEECLLIHPKCAWCSKEYFGNPRSITSRCDLKANLIRNGCEGEIESPASSTHVLRNLPLSSKGSSATGSDVIQMTPQEIAVSLRPGEQTTFQLQVRQVEDYPVDLYYLMDLSLSMKDDLENIRSLGTKLAEEMRKLTSNFRLGFGSFVDKDISPFSYTAPRYQTNPCIGYKLFPNCVPSFGFRHLLPLTDRVDSFNEEVRKQRVSRNRDAPEGGFDAVLQAAVCKEKIGWRKDALHLLVFTTDDVPHIALDGKLGGLVQPHDGQCHLNEANEYTASNQMDYPSLALLGEKLAENNINLIFAVTKNHYMLYKNFTALIPGTTVEILHGDSKNIIQLIINAYSSIRAKVELSVWDQPEDLNLFFTATCQDGISYPGQRKCEGLKIGDTASFEVSVEARSCPGRQAAQSFTLRPVGFRDSLQVEVAYNCTCGCSTGLEPNSARCSGNGTYTCGLCECDPGYLGTRCECQEGENQSGYQNLCREAEGKPLCSGRGECSCNQCSCFESEFGRIYGPFCECDSFSCARNKGVLCSGHGECHCGECKCHAGYIGDNCNCSTDVSTCKAKDGQICSDRGRCVCGQCQCTEPGAFGETCEKCPTCPDACSSKRDCVECLLLHQGKPDNQTCHHQCKDEVITWVDTIVKDDQEAVLCFYKTAKDCVMMFSYTELPNGRSNLTVLREPECGSAPNAMTILLAVVGSILLIGMALLAIWKLLVTIHDRREFAKFQSERSRARYEMASNPLYRKPISTHTVDFAFNKFNKSYNGSV

Legend:
DYT-TOR1A MEF EVs = experiment: Quantitative LC-MS/MS proteomics of EVs from drug-treated DYT-TOR1A MEF cultures (ritonavir, salubrinal); assay type: cell-based, mouse; parameters: key to RTV Corrective Direction / RTV Corrective Direction, Grwd1 / RTV Corrective Direction, Srrm2 / RTV Corrective Direction, Rbm17 / RTV Corrective Direction, Dcaf8 / RTV Corrective Direction, Edil3 / RTV Corrective Direction, Timp3 / RTV Corrective Direction, Heatr3 / RTV Corrective Direction, Brd4 / RTV Corrective Direction, P3h4 / RTV Corrective Direction, Pacsin3 / RTV Corrective Direction, Naa50 / RTV Corrective Direction, Lpar6 / RTV Corrective Direction, Ndrg1 / RTV Corrective Direction, Kntc1 / RTV Corrective Direction, Cdk11b / RTV Corrective Direction, Sumo1 / RTV Corrective Direction, Lsm4 / RTV Corrective Direction, Hmga2 / RTV Corrective Direction, Cstf1 / RTV Corrective Direction, Tes / RTV Corrective Direction, Sbno1 / RTV Corrective Direction, Unc119b / RTV Corrective Direction, Cfdp1 / RTV Corrective Direction, Sec61b: YES = protein abundance effect opposite to DYT/WT; settings: EV protein abundance; for RTV Corrective Direction: DYT + RTV (ritonavir) vs DYT, direction compared with DYT/WT; for DYT + RTV/DYT Cohen's d: ritonavir (RTV)-treated DYT vs DYT
WT MEF EVs = experiment: Quantitative LC-MS/MS proteomics of EVs from ISRIB-treated WT MEF cultures; assay type: cell-based, mouse; parameters: key to ISRIB and DYT Parallel Direction / ISRIB and DYT Parallel Direction, Ctdsp1 / ISRIB and DYT Parallel Direction, Pcdh19 / ISRIB and DYT Parallel Direction, Tspan7 / ISRIB and DYT Parallel Direction, Myo1e / ISRIB and DYT Parallel Direction, Plpp3 / ISRIB and DYT Parallel Direction, Sh3bp4 / ISRIB and DYT Parallel Direction, Dnajc7 / ISRIB and DYT Parallel Direction, Drg1 / ISRIB and DYT Parallel Direction, Maea: YES = protein abundance effect similar to DYT/WT; settings: EV protein abundance; for WT + ISRIB/WT Cohen's d: ISRIB-treated WT vs WT; for ISRIB and DYT Parallel Direction: WT + ISRIB vs WT, direction compared with DYT/WT

| Molecule | RTV Corrective Direction (DYT-TOR1A MEF EVs) | DYT + RTV/DYT Cohen's d (DYT-TOR1A MEF EVs) | WT + ISRIB/WT Cohen's d (WT MEF EVs) | ISRIB and DYT Parallel Direction (WT MEF EVs) |
| --- | --- | --- | --- | --- |
| B1 | YES | 3.50 | −0.85 | YES |
| B2 | YES | 4.82 | −0.66 | YES |
| B3 | YES | 4.01 | −2.20 | YES |
| B4 | YES | 5.50 | −1.34 | YES |
| B5 | YES | 5.85 | −0.01 | YES |
| B6 | YES | −4.60 | 0.07 | YES |
| B7 | YES | −4.69 | 1.22 | YES |
